Laboratory results as given in patent US20240043859A1, “HERBICIDE-RESISTANT PROTEIN, AND GENE AND USE THEREOF” (QINGDAO KINGAGROOT CHEMICAL COMPOUND CO., LTD., priority 2020, published 2024).

experiment: Chromogenic reaction of degrading herbicides in bacteria: 2,4-D; type: cell-based, Escherichia coli; conditions: recombinant E. coli expressing the gene, 2,4-D added to the medium; red = phenols
Method: To transform the plasmids to be tested, an AAD12-expressing plasmid and a blank control plasmid pET15b were respectively transformed into the protein expression E. coli BL21(DE3) strains. A monoclone was selected and inoculated in a 10 ml centrifuge tube with 3 ml LB medium, and cultivated at 37° C., 200 rpm for 6-8 hours. The culture medium was added with 0.1 mM IPTG and 2 mM α-ketoglutaric acid, and then 0.5 mM 2,4-D. The temperature was switched to 28° C. and the cultivation continued overnight. In the next morning, 200 μL of each bacteria solution was taken and centrifuged to precipitate thallus, 180 μL of the supernatant was taken and added in a 96-well plate, and 20 μL of borate buffer of pH 10 was added. Then the mixture was added with 2 μL of 8% potassium ferricyanide and mixed well, followed by adding 2 μL of 2% 4-aminoantipyrine, and placed at room temperature for 5 min to observe the color and detect the A510 value.
The bacteria solution also appeared red when 2,4-D was directly added into the medium of AAD12-expressing bacteria, as shown in FIG. 1.
2,4-D was added into these bacteria solutions of AAD gene-expressing recombinant E. coli and cultivation was continued for color development.

Molecule	Chromogenic reaction of degrading herbicides in bacteria: 2,4-D
QYD69: AAD-like candidate enzyme; 100.00% identical to US20170211087-0004 (protein, Synthetic polypeptide, QYD69, D69) MAQTTLQITPTGATLGATVTGVHLATLDDAGFAALHAAWLQHALLIFPGQHLSNDQQITFAKRFGAIERIGGGDIVAISNVKADGTVRQHSPAEWDDMMKVIVGNMAWHADSTYMPVMAQGAVFSAEVVPAVGGRTCFADMRAAYDALDEATRALVHQRSARHSLVYSQSKLGHVQQAGSAYIGYGMDTTATPLRPLVKVHPETGRPSLLIGRHAHAIPGMDAAESERFLEGLVDWACQAPRVHAHQWAAGDVVVWDNRCLLHRAEPWDFKLPRVMWHSRLAGRPETEGAALV	Yes
QYD60: AAD-like candidate enzyme; 100.00% identical to US20160002662-0002 (protein, Synthetic polypeptide, QYD60, D60) MSPAFDIAPLDATFGAVVTGVKLADLDDAGWLDLQAAWLEYALLVFPDQHLTREQQIAFARRFGPLEFEMAAISNVRPDGSLRVESDNDDMMKILKGNMGWHADSTYMPVQAKGAVFSAEVVPSVGGQTGFADMRAAYDALDEDLKARVETLQARHSLHYSQSKLGHQTKAADGEYSGYGLHDGPVPLRPLVKIHPETGRKSLLIGRHAHAIPGLEPAESERLLQQLIDFACQPPRIYHHDWAPGDAVLWDNRCLLHQATPWDMTQKRIMWHSRIAGDPASETALAH	Yes
QYD65: AAD-like candidate enzyme; 100.00% identical to CN103013939-0002 (protein, Synthetic polypeptide, QYD65, D65) MAIAIRQLHPHFVGEVSGVDLRHPLTRDEVAELQAAIDHYAVLVFHDQDIGDEQQLAFALNFGDREKARGGTVTKKEDYRLTTGLNDVSNLGKDGKPLPPDHRTHLFNLGNCLWHSDSSFRPIPAKYSILSARIVNPKGGNTEFADMRAAYDALDEQTKAEIDDLVSEHSLMYSRGSLGFLDYTDEEKKMFKPVRQRLVRTHPAHGRKSLYLSSHAGAVVGMSMPEGRLLLRDLTEHATQPEFVYVHKWRLHDLVMWDNRQTVHRVRRYDQSQPRDMRRATVAGTEPTVAQQAAE	Yes
QYD63: AAD-like candidate enzyme; 100.00% identical to US20140179534-0002 (protein, Synthetic polypeptide, QYD63, D63) MSSLELTPLHPLFAAEARGIDIRQPLSPSEVKQINAAMNRYAVLVWRGQPLTGQQQIDFAKAFGPLDLGLKKVFKRPERLEDERLIDISNVDAEGKVARRDSPKNLSNFANQLWHSDSSFQNPRAAYSMLHALVLPSWGGNTEFAELRAAYDALPERTRSEIEGLRAEHYALHTRILLGDEAYTDDQKKAIPPAVWPLAQTHPGSGRKLLFVGVHAREIIGWPVAEGRMFLSDLLEHATRREFVYTHEWQVGDLVMWDNRSTLHRGRRYDIGERRELRRTTIEDVPEATLMAA	Yes
QYD68: AAD-like candidate enzyme; 100.00% identical to JP2018506305-0002 (protein, Synthetic polypeptide, QYD68, D68) MSPAFDIAPLDATFGAVVTGVKLADLDDAGWLDLQAAWLQHALLIFPGQHLSNDQQITFAKRFGAIERIGGGDIVAISNVKADGTVRQHSPAEWDDMMKVIVGNMAWHADSTYMPVMAQGAVFSAEVVPAVGGRTCFADMRAAYDALDEATRALVHQRSARHSLVYSQSKLGHVQQAGSAYIGYGMDTTATPLRPLVKVHPETGRPSLLIGRHAHAIPGMDAAESERFLEGLVDWACQAPRVHAHQWAAGDVVVWDNRCLLHRAEPWDFKLPRVMWHSRLAGRPETEGAALV	Yes
QYD67: AAD-like candidate enzyme; 100.00% identical to US20180244732-0002 (protein, Synthetic polypeptide, QYD67, D67) MSPAFDIAPLDATFGAVVTGVHLATLDDAGFAALHAAWLQHALLIFPGQHLSNDQQITFAKRFGAIERIGGGDIVAISNVKADGTVRQHSPAEWDDMMKVIVGNMAWHADSTYMPVMAQGAVFSAEVVPAVGGRTCFADMRAAYDALDEATRALVHQRSARHSLVYSQSKLGHVQQAGSAYIGYGMDTTATPLRPLVKVHPETGRPSLLIGRHAHAIPGMDAAESERFLEGLVDWACQAPRVHAHQWAAGDVVVWDNRCLLHRAEPWDFKLPRVMWHSRIAGDPASETALAH	Yes
QYD70: AAD-like candidate enzyme; 100.00% identical to US20190017066-0048 (protein, Synthetic polypeptide, QYD70, D70) MHAALTPLTNKYRHIDVQPLTGVLGAEITGVDLREPLDDSTWNEILDAFHTYQVIYFPGQAITNEQHIAFSRRFGPVDPVPILKSIEGYPEVQMIRREANESSRYIGDDWHADSTFLDAPPAAVVMRAIEVPEYGGDTGFLSMYSAWETLSPTMQATIEGLNVVHSATKVFGSLYQATNWRFSGTSVKVMDVDAGDRETVHPLVVTHPVTGRRALYCNQVYCQKIQGMTDAESKSLLQFLYEHATQFDFTCRVRWKKDQVLVWDNLCTMHRAVPDYAGKFRYLTRTTVAGDKPSR	Yes
QYD61: AAD-like candidate enzyme; 100.00% identical to US20190024109-0292 (protein, Synthetic polypeptide, QYD61, D61) MSVVANPLHPLFAAGVEDIDLREALGSTEVREIERLMDEKSVLVFRGQPLSQDQQIAFARNFGPLEGGFIKVNQRPSRFKYAELADISNVSLDGKVAQRDAREVVGNFANQLWHSDSSFQQPAARYSMLSAVVVPPSGGDTEFCDMRAAYDALPRDLQSELEGLRAEHYALNSRFLLGDTDYSEAQRNAMPPVNWPLVRTHAGSGRKFLFIGAHASHVEGLPVAEGRMLLAELLEHATQREFVYRHRWNVGDLVMWDNRCVLHRGRRYDISARRELRRATTLDDAVV	Yes
QYD66: AAD-like candidate enzyme; 100.00% identical to US20140194292-0002 (protein, Synthetic polypeptide, QYD66, D66) MERHAMSNGKQIVRIEPLPGKTFGAVVTGVRLSELDEDTFSLLYREWLQYALLIFPAQYLTDSQQRDAASKFGCLVEGLEAVEISNLLPTGEVRAAPDDDMMKIIRGNMQWHQDNTYMPLQAKGALFSAKRVPSSGGETGFADMRAAWDALDTETQDRLANLSAYHSLAQSQKNLGEDVKSSDSEYIGYGLDVSTVPRRSLLKIHPETDRKTLAVGRHAFGVTGMAEQESTQFVSDLIDFAVADESRTYHHIWSEGDAILWDNRCLMHRACPWNFSQPRVMLHSRIAGDPSTEAALNS	Yes
QYD64: AAD-like candidate enzyme; 100.00% identical to US20180066275-0002 (protein, Synthetic polypeptide, QYD64, D64) MSLQLKPLHPVFGAEASGLDLTRPLSDADVRAVNAAMNEHAVLVFRGQPLTAQQQLDFAKHFGPLDIGLKRVFKRPERLEDERLIDISNVDAQGNIARRDSPKNLSNFANQLWHSDSSFMNPRAAYSMLHCVIKPSWGGNTEFADLRHAYDTLDERTKAEIQDLKAEHFALHTRILLGDDAYTDDQKKEIPPAVWPLADTHPGSGRKVLFVGVHAREIIGWPVAEARMYLSDLLEHATRRENVYVHEWTPGDLVIWDNRSTLHRGRRYDITERRELRRTTINDTPEAMLMAA	Yes
QYD71: AAD-like candidate enzyme; 100.00% identical to CN109456986-0002 (protein, Synthetic polypeptide, QYD71, D71) MPFQVNQLHPIFAAEMFGCDILKPVTDETRNAVEDAMAKYAVLVIRDQAAASDEDQVRFAKAFGPLELPPDLGMSERTRPTRVHPKLYDVSNLDENGNLDKPDTLRRKFAKGNELFHTDSSFNDLPTKWSMLLAHVVTPTGGNTEFVDTRAAYDALSPSMKEQVEPLSVIHSLTYSRERGGLTGTTVFDRAFPPVTQPLVRTSASGRKALYIGAHAATVVGMDEAAGRTLLDKLISDASRPEYIYSHKWLPGDLVIWDNRCTMHRATEYAYMEDRRDLRRATINEFGEDRVGARPI	Yes
